Where two headings read alike, the source gives them in different places.
T1: recombinant mouse FcγRI (mouse, UniProt P26151 25-297)
T1 construct: mouse Fc gamma receptor I, recombinant; source: bought: R&D Systems
T1 sequence (looked up): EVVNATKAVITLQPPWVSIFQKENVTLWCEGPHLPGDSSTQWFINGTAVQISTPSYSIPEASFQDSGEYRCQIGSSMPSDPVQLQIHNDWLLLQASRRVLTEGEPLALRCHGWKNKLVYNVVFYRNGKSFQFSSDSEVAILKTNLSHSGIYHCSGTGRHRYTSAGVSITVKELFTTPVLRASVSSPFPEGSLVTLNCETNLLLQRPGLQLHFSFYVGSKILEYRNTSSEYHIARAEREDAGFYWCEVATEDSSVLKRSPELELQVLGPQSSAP

T2: recombinant mouse SIGN-R1 (mouse), Q8CJ91
T2 chain: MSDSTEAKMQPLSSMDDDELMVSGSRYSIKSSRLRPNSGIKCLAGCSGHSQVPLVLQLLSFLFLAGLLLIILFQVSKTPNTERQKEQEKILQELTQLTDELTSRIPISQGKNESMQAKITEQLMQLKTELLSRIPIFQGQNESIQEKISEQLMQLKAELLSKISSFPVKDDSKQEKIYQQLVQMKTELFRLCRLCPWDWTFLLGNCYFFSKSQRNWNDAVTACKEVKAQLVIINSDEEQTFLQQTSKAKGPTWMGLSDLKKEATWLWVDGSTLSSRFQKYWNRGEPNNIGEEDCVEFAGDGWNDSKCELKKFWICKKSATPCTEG

B1: recombinant mouse FcγRIV (receptor, UniProt A0A0B4J1G0 21-203, looked up)
chain: GLQKAVVNLDPKWVRVLEEDSVTLRCQGTFSPEDNSIKWFHNESLIPHQDANYVIQSARVKDSGMYRCQTALSTISDPVQLEVHMGWLLLQTTKWLFQEGDPIHLRCHSWQNRPVRKVTYLQNGKGKKYFHENSELLIPKATHNDSGSYFCRGLIGHNNKSSASFRISLGDPGSPSMFPPWHQ
notes: mouse Fc gamma receptor IV, recombinant; source: bought: R&D Systems
B2: recombinant mouse FcγRIII (receptor, UniProt P08508 31-215, looked up)
chain: ALPKAVVKLDPPWIQVLKEDMVTLMCEGTHNPGNSSTQWFHNGRSIRSQVQASYTFKATVNDSGEYRCQMEQTRLSDPVDLGVISDWLLLQTPQRVFLEGETITLRCHSWRNKLLNRISFFHNEKSVRYHHYKSNFSIPKANHSHSGDYYCKGSLGSTQHQSKPVTITVQDPATTSSISLVWYHT
notes: mouse Fc gamma receptor III, recombinant; His tag and catalogue number are told for the biolayer interferometry only; also called His-tagged mouse FcγRIII; source: bought: R&D Systems
B3: recombinant mouse FcγRIIb (receptor, UniProt P08101 30-210, looked up)
chain: THDLPKAVVKLEPPWIQVLKEDTVTLTCEGTHNPGNSSTQWFHNGRSIRSQVQASYTFKATVNDSGEYRCQMEQTRLSDPVDLGVISDWLLLQTPQLVFLEGETITLRCHSWRNKLLNRISFFHNEKSVRYHHYSSNFSIPKANHSHSGDYYCKGSLGRTLHQSKPVTITVQGPKSSRSLP
notes: mouse Fc gamma receptor IIb, recombinant; His tag and catalogue number are told for the biolayer interferometry only; also called His-tagged mouse FcγRIIb; source: bought: R&D Systems
B4: 2A-ILZN: stradomer with the isoleucine zipper linked to the amino terminus of murine IgG2a Fc (Fc fusion)
chain: EPRGPTIKPCPPCKCPAPNLLGGPSVFIFPPKIKDVLMISLSPIVTCVVVDVSEDDPDVQISWFVNNVEVHTAQTQTHREDYNSTLRVVSALPIQHQDWMSGKEFKCKVNNKDLPAPIERTISKPKGSVRAPQVYVLPPPEEEMTKKQVTLTCMVTDFMPEDIYVEWTNNGKTELNYKNTEPVLDSDGSYFMYSKLRVEKKNWVERNSYSCSVVHEGLHNHHTTKSFSRTPGK
modifications: not checked
B5: 2A-ILZC: stradomer with the isoleucine zipper linked to the carboxy terminus of murine IgG2a Fc (Fc fusion)
chain: B4 chain
modifications: not checked
B6: recombinant murine IgG2a Fc (domain or fragment, mouse, UniProt P01863 98-330, looked up)
chain: B4 chain
notes: murine IgG2a Fc: hinge, CH2 and CH3 domains, no Fab region; Runs as a homodimer (45 kDa) on non-reducing SDS-PAGE, with a weaker band at about 90 kDa; source: recombinant, from a cDNA construct; host and purification are stated for the stradomers only (HEK293, protein A-derived column)

Assays:
[1] = molecular target: recombinant mouse FcγRIII (mouse) (UniProt P08508); assay: SPR; Biacore 3000 or T100; receptors immobilised by amine coupling on CM4 (FcγRs) or CM5 (SIGN-R1) chips; samples 1,000 nM to 0.5 nM in HBS-EP at 20 μl/min; 1:1 Langmuir kinetic model; molecular mass of 50 kDa assigned to homodimer isolates and 150 kDa to all other preparations
[2] = molecular target: recombinant mouse FcγRIIb (mouse) (UniProt P08101); assay: as above
[3] = molecular target: recombinant mouse FcγRIV (mouse); assay: as above
[4] = molecular target: recombinant mouse SIGN-R1 (mouse) (UniProt Q8CJ91); assay: as above
recombinant mouse FcγRI = molecular target: T1, recombinant mouse FcγRI; assay: as above
[5] = molecular target: recombinant mouse FcγRI (mouse) (UniProt P26151); assay: as above
[6] = molecular target: B6; assay: as above; conditions: both partners purified
[7] = molecular target: T2, recombinant mouse SIGN-R1 (mouse), …; assay: as above
[8] = molecular target: the molecule itself; assay: SDS-PAGE, nonreduced against reduced; 0.5 to 2 μg of purified protein on 4-12% Bis-Tris gels, Coomassie stain; multimers present under denaturing but not reducing conditions (covalently linked)

Row | Kd [1] [nM] | Kd [2] [nM] | Kd [3] [nM] | Kd [6] [nM] | Molecule | also measured
1 | 4.4 | 3.4 | 7.6 |  | 2A-2HN: stradomer with hinge of human IgG2 linked to the amino terminus of murine IgG2a Fc (Fc fusion) | Kd [4]: 109 nM; Kd (recombinant mouse FcγRI): 16.3 nM
2 | 2.3 | 3.8 | 0.46 |  | 2A-ILZN: stradomer with the isoleucine zipper linked to the amino terminus of murine IgG2a Fc (Fc fusion) | Kd [5]: 6.71 nM
3 | 151 | 455 | 63.6 |  | 2A-ILZC: stradomer with the isoleucine zipper linked to the carboxy terminus of murine IgG2a Fc (Fc fusion) | Kd [5]: 63.4 nM
4 | 4.2 | 3.3 | 3.03 |  | 2A-2HC: stradomer with hinge of human IgG2 linked to the carboxy terminus of murine IgG2a Fc (unfractionated) (Fc fusion) | Kd (recombinant mouse FcγRI): 9.12 nM
5 |  |  |  | 27.8 | B1 | 
6 |  |  |  | 248 | B2 | 
7 |  |  |  | 289 | B3 | 
8 |  |  |  |  | B4 | Kd [7]: 134 nM
9 |  |  |  |  | B5 | Kd [7]: 43.9 nM
10 |  |  |  |  | B6 | stoichiometry N [8]: 2; Kd (recombinant mouse FcγRI; both partners purified): 17.4 nM
